The values that follow come from article PMC7114193.

Conditions in all cases: modification not given
Experiment [1] deals with ACE2 (Homo sapiens), Q9BYF1. The experiment can be described thus: SPR. In general terms: Surface plasmon resonance follows binding to a sensor surface in real time, without labels.
Experiment [2] has as its target ACE2 (Homo sapiens), Q9BYF1. The experiment is described as follows: SPR. The source holds these as a separate data set.
Experiment [3] deals with ACE2 (Homo sapiens), Q9BYF1. The experiment is described as follows: SPR. The source holds these as a separate data set.
The target in experiment [4] is ACE2 (Homo sapiens), Q9BYF1. The experiment is described as follows: SPR. The source holds these as a separate data set.
Experiment [5] deals with ACE2 (Homo sapiens), Q9BYF1. The experiment is described as follows: NMR.

Sequence of ACE2 (Homo sapiens), Q9BYF1 (Q9BYF1 18-740): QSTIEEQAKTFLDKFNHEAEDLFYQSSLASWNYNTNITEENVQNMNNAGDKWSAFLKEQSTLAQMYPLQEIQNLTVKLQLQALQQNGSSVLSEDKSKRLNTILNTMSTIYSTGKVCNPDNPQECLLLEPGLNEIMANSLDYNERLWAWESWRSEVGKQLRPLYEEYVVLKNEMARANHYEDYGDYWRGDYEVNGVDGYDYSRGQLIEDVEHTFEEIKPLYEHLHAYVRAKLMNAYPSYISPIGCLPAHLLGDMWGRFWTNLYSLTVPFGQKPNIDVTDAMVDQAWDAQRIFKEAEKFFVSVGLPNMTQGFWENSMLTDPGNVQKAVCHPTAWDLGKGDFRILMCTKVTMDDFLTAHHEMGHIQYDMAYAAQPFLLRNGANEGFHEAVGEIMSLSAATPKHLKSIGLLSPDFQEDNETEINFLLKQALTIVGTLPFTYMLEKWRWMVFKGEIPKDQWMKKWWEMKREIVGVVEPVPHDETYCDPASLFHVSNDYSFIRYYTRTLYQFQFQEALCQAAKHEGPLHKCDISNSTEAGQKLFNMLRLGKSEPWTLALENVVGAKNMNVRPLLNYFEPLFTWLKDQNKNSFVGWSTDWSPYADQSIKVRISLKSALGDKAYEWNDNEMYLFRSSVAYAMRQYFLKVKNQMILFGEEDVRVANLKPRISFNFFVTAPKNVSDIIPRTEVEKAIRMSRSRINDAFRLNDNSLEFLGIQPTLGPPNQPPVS

One may read the Kd as the equilibrium constant for the complex coming apart. Consider YKYRYLRHGKLR [RBD-11 peptide, P59594], for which the values for the dissociation constant Kd in experiment [1] and in experiment [2] were 67 µM and 85 µM, respectively.
For the molecule CYWPLNDYGFYT [RBD-14 peptide, P59594], the results for the equilibrium dissociation constant (Kd) in experiment [1] and in experiment [3] were 430 µM and 450 µM, respectively.
Take TTGIGYQPYRVV [RBD-15 peptide, P59594]: the dissociation constant Kd stood at 450 µM in experiment [1] and 672 µM in experiment [4].
As to YKYRYL [RBD-11b peptide], the dissociation constant Kd in experiment [5] was 60 µM; in experiment [1] it was 46 µM.
